Assay results: PMC12965321

Biological target: RING1 [the product of Sex combs extra (Sce) gene] (D. melanogaster (endogenous in embryos)) (UniProt Q9VB08)
Test: co-IP; nuclear extract of RYBP-KO, Siesta-Strep embryos (no RYBP), dialysed against 25 mM Hepes-KOH pH 7.6, 0.1 M KCl; anti-RING1 cross-linked to Dynabeads or Strep-Tactin Sepharose, 0.02% NP-40, overnight at 4°C; Western blot; compared with Siesta-Strep extract

Sequence of UniProt Q9VB08 (Q9VB08 whole entry): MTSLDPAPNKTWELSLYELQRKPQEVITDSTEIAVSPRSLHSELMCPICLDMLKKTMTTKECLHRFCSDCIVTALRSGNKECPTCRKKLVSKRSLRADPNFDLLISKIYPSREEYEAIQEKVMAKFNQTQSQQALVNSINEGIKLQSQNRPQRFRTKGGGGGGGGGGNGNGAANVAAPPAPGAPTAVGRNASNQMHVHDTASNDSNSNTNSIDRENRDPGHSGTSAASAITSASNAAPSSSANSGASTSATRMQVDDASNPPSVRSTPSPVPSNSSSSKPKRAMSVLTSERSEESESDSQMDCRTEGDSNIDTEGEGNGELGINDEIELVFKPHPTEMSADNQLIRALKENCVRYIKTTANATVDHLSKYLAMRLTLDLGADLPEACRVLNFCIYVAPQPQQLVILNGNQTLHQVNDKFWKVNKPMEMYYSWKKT

fold reduction of coimmunoprecipitation without RYBP against extract with RYBP: > 6 fold
Substance: Twin-Strep-tagged and Myc-tagged Siesta protein (natural protein)
